Like-named read-outs stand apart in the source and are kept apart here.
Key:
Ramos cells (CD10pos) = type: cell-based, human; details: 24 hours, 3H-thymidine
Protocol: (§1) In addition to LNCaP, a number of B-cell lines, such as Ramos and Namalwa cells express CD10 (CD10^pos cells).
(§2) Suspension cells, BALL-1, Ramos and Namalwa cells were cultured in RPMI media containing 10% heat inactivated fetal calf serum (FCS). On the day of the study, the cells were collected, washed and resuspended at a concentration of 0.5×10^6 cells/ml in RPMI containing 10% FCS. 100 μl of cell suspension was added to 96 well plates. […] Finally 10 μl of a 100 μCi/ml ^3H-thymidine was added per well and the plates were incubated for 24 hours. The plates were harvested using a 96 well Harvester (Packard Instruments) and counted on a Packard Top Count counter. Four parameter logistic curves were fitted to the ^3H-thymidine incorporation as a function of drug molarity using Prism software to determine IC50 values.

BALL-1 cells (CD10neg) = type: cell-based, human
Protocol: as §1, §2

[1] = test system: purified Porcine Kidney CD10; experiment: Hydrolysis by purified CD10; type: biochemical
Protocol: Reaction products were analyzed by HPLC with fluorescence detection. Rates were essentially linear over the incubation period. The observed product was Leu-doxorubicin.

in vivo = details: female, ICR, mouse, iv, 100 umol/kg
Protocol: Plasma was obtained from three individual animals in each group at 5 minutes, 1, 2, 4, or 6 hr.

[2] = mouse, in vivo, intravenous
Namalwa cells (CD10pos) = experiment: cells; type: cell-based, human; details: 24 hours, 3H-thymidine
Protocol: as §1, §2

[3] = test system: healthy young female normal mice
normal ICR mice = experiment: Single dose Maximum Tolerated Dose (SD-MTD) study, 49 days, ICR mice (Examples 5 and 6)
Protocol: In a second single dose Maximum Tolerated Dose (SD-MTD) study, groups of five normal ICR mice were administered intravenous bolus doses of Suc-Leu-Ala-Leu-Dox. The mice were observed daily for 49 days and body weights measured twice weekly.
In a second single dose Maximum Tolerated Dose (SD-MTD) study, groups of five normal ICR mice were administered intravenous bolus doses of Suc-Leu-Ala-Gly-Dox. The mice were observed daily for 49 days and body weights measured twice weekly.

[4] = Repeat-dose tolerability / repeat dose MTD in tumor bearing mice; type: in vivo, mouse; details: mouse, in vivo, intravenous, five doses, based on efficacy study in Example 12
tumor-bearing nude mice = experiment: as above; type: in vivo, mouse
[5] = first experiment, as first stated
[6] = recalculation (about 47% active compound)

COc1cccc2c1C(=O)c1c(O)c3c(c(O)c1C2=O)C[C@@](O)(C(=O)CO)C[C@@H]3O[C@H]1C[C@H](NC(=O)[C@H](CC(C)C)NC(=O)[C@H](C)NC(=O)[C@H](CC(C)C)NC(=O)CCC(=O)O)[C@H](O)[C@H](C)O1 [Suc-Leu-Ala-Leu-Dox]
IC50 (Ramos cells (CD10pos)): 2630 nM
fold difference between CD10pos and CD10neg cells (BALL-1 cells (CD10neg)): 30-35 fold
IC50 (BALL-1 cells (CD10neg); Ball-1 (CD10neg), 24 hours, 3H-thymidine): 78700 nM
Ratio Ball-1:Namalwa (BALL-1 cells (CD10neg); ratio of IC50): 35
Ratio Ball-1:Ramos (BALL-1 cells (CD10neg); ratio of IC50): 30
% hydrolysis/10 hr ([1]; 12.5 μg/mL, 37° C., pH 7.4, up to 10 hr): 8.3%
Fraction hydrolyzed relative to standard ([1]; standard Suc-βAla-Leu-Ala-Leu-Dox): 0.75
AUC (in vivo): 634 µM·h
MTD at 28 day [2]: ~59 mg/kg
IC50 (Namalwa cells (CD10pos)): 2270 nM
equivalent dose of doxorubicin safely administered [3, 5]: 66 mg/kg
fold higher than possible with doxorubicin alone [3, 5]: approximately 8 fold
mortalities over the 28-day study ([3]; intravenous 23-117 mg/kg): no mortalities
single-dose MTD ([3]; intravenous, mice, 28-day study, first experiment, doses as first stated): greater than 117 mg/kg
equivalent dose of doxorubicin safely administered [3, 6]: 70 mg/kg
fold higher than possible with doxorubicin alone [3, 6]: approximately 3.3 fold
single dose MTD, fold higher than doxorubicin alone ([3]; repeated experiment): at least 1.2 fold
acute toxicity, within 24 hours (normal ICR mice; any dose level): no acute toxicity
SD-MTD (mg/kg Dox =) (normal ICR mice; doxorubicin equivalent, intravenous bolus, ICR mice, Day 49): 42 mg/kg Dox =
dose groups with toxicity (partial hind-end paralysis, body weight loss >20%) (normal ICR mice; single intravenous bolus, 49 days): ≥ 94 mg/kg
MTD at 60 day [4]: ~52 mg/kg
acute signs of toxicity following repeat administration (tumor-bearing nude mice; 52 or 63 mg/kg every 5 days for five doses): no acute signs of toxicity
body weight loss, % of the initial weight (tumor-bearing nude mice; 52 or 63 mg/kg intravenously every 5 days for five doses, 60-day observation): less than 5%
Optimal Efficacy Repeat Dose (mg/kg), value in parentheses (doxorubicin equivalent dose) (tumor-bearing nude mice; Table 11, five doses at five day or 1 week intervals): 38 mg/kg
Optimal Efficacy Repeat Dose (tumor-bearing nude mice; Table 11, five doses at five day or 1 week intervals, tumor bearing mice, 60 days): 63 mg/kg
